Data reported in patent US20210230266A1 (SINGAPORE HEALTH SERVICES PTE, published 2021).
Substitutions are numbered along the chain they refer to.

Key:
[1] = target: T1, Human IL-11 (human, UniProt P20809 22-199); assay: ELISA on coated recombinant human IL-11 (100 ng/well), scFv-Fc
T1 construct: Recombinant human IL-11 (GenScript Cat. No. Z03108-1) or IL-11 secreted by human cells; the mature form is said to have 178 residues; also called recombinant human IL-11; endogenously produced IL-11
T1 sequence: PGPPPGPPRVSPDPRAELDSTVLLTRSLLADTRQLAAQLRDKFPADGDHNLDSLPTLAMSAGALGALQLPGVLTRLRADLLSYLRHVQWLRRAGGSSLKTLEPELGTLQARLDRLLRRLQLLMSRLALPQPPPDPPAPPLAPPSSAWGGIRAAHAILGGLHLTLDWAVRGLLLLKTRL
Procedure: The light chain shuffled anti-IL-11 antibodies were analysed to determine the EC50 for binding to human IL-11 by ELISA according to standard methods. Briefly, wells of microtiter plates were coated with recombinant human IL-11 (100 ng/well), scFv-Fc comprising the VH and VL domains of the clones were added in a dilution series and antibody binding was detected using a polyclonal antibody detection system.

[2] = target: T1, Human IL-11; assay: ELISA
Procedure: (§1) The soluble scFv were produced by recombinant expression in E. coli, and analysed for their ability to bind to human IL-11 and murine IL-11 by ELISA. Briefly, the respective antigen was coated to wells of an ELISA plate, the cell culture supernatant containing the respective scFv was added at a 1:2 dilution, and binding was detected.

[3] = target: T2, Mouse IL-11 (mouse, UniProt P47873 22-199, limits assumed); assay: ELISA
T2 construct: also called murine IL-11; recombinant murine IL-11
T2 sequence (looked up): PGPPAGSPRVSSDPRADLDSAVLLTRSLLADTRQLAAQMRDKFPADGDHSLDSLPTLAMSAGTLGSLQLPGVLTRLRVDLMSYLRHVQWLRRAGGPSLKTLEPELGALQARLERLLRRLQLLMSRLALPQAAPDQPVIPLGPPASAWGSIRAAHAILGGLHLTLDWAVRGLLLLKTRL
Procedure: as §1

[4] = target: T1, Human IL-11; assay: cell-based or functional assay

B1: YU100-E09 (antibody)
chain: QVQLVESGGGVVQPGRSLRLSCAASGFTFSSYAMHWVRQAPGKGLEWVAVISYDGSNKYYADSVKGRFTISRDNSKNTLYLQMNSLRAEDTAVYYCARIMGYDYGDYDVVDYWGQGTLVTVSSGSASAPKLEEGEFSEARVQSALTQPRSVSGSPGQSVTISCTGTSSDVGDYDYVSWYQQHPGKAPKLIIYDVTKRPSGIPDRFSGSKSGNTASLTISGLQAEDEADYYCCSYAGSYTWVFGRGTKLTVL
EC50 [1]: 0.019 µg/mL | hIL11 - average signal [2]: 0.224 | mIL11 - average signal [3]: 0.335 | MMP2 production, Experiment 1 (human atrial fibroblasts + TGFB1) [4]: 51.7 ng/mL | MMP2 production, Experiment 2 (human atrial fibroblasts + TGFB1) [4]: 44.4 ng/mL

B2: YU100-H04 (antibody)
chain: B1 chain with R149A, V159I, V170I, D172V, D174N, I190M, T195S, I201V, R244G
EC50 [1]: 0.027 µg/mL | hIL11 - average signal [2]: 0.508 | mIL11 - average signal [3]: 0.393 | MMP2 production, Experiment 1 (human atrial fibroblasts + TGFB1) [4]: 58.5 ng/mL | MMP2 production, Experiment 2 (human atrial fibroblasts + TGFB1) [4]: 48.7 ng/mL

B3: YU100-E11 (antibody)
chain: B1 chain with A33G, D172G, D174N, I190M, T195S, I201V, R244G
EC50 [1]: 0.028 µg/mL | hIL11 - average signal [2]: 0.268 | mIL11 - average signal [3]: 0.435 | MMP2 production, Experiment 1 (human atrial fibroblasts + TGFB1) [4]: 49.1 ng/mL | MMP2 production, Experiment 2 (human atrial fibroblasts + TGFB1) [4]: 41.9 ng/mL

B4: YU100-H05 (antibody)
chain: QVQLVESGGGVVQPGRSLRLSCAASGFTFSSYGMHWVRQAPGKGLEWVAVISYDGSNKYYADSVKGRFTISRDNSKNTLYLQMNSLRAEDTAVYYCAKIGATDPLDYWGQGTLVTVSSGSASAPKLEEGEFSEARVQAVLTQPRSVSGSPGQSITISCTGTGSNVGGYNYVSWYQQHPGQAPKLMIYDVSKRPSGVPDRFSGSKSGNTASLTISGLQAEDEADYYCCSYAGTYTWVFGGGTKLTVL
EC50 [1]: 0.022 µg/mL | hIL11 - average signal [2]: 0.163 | mIL11 - average signal [3]: 0.461 | MMP2 production, Experiment 1 (human atrial fibroblasts + TGFB1) [4]: 57.1 ng/mL | MMP2 production, Experiment 2 (human atrial fibroblasts + TGFB1) [4]: 47.8 ng/mL

B5: YU100-H02 (antibody)
chain: QVQLQQSGGGVVQPGRSLRLSCAASGFTFSSYGMHWVRQAPGKGLEWVAVISYDGSNKYYADSVKGRFTISRDNSKNTLYLQMNSLRAEDTAVYYCARIMGYDYGDYDVVDYWGQGTLVTVSSGSASAPKLEEGEFSEARVQSALTQPRSVSRSPGQSVTISCTGTSSDVGTYNYVSWYQQHPGKAPKLMIYDVSKRPSGVPDRFSGSKSGNTASLTISGLQAEDEADYYCCSYAGFYTWVFGGGTKLTVL
EC50 [1]: 0.032 µg/mL | hIL11 - average signal [2]: 0.309 | mIL11 - average signal [3]: 0.188 | MMP2 production, Experiment 1 (human atrial fibroblasts + TGFB1) [4]: 57.5 ng/mL | MMP2 production, Experiment 2 (human atrial fibroblasts + TGFB1) [4]: 51.3 ng/mL

B6: YU100-H09 (antibody)
chain: B5 chain with Q5V, G33A, R149A, R153G, V159I, T172G, K196N, P202S, D203N, F237S
EC50 [1]: 0.028 µg/mL | hIL11 - average signal [2]: 0.4 | mIL11 - average signal [3]: 0.668 | MMP2 production, Experiment 1 (human atrial fibroblasts + TGFB1) [4]: 52.9 ng/mL | MMP2 production, Experiment 2 (human atrial fibroblasts + TGFB1) [4]: 39.6 ng/mL

B7: YU100-F01 (antibody)
chain: QVQLVQSGGGVVQPGRSLRLSCAASGFTFSSYGMHWVRQAPGKGLEWVAVISYDGSNKYYADSVKGRFTISRDNSKNTLYLQMNSLRAEDTAVYYCAKIGATDPLDYWGQGTLVTVSSGSASAPKLEEGEFSEARVQSALTQPASVSGSPGQSITISCTGTGSDVGAYDYVSWYQQHPGKAPKLMIYDVNNRPSGVSNRFSGSKSGNTASLTISGLQAEDEAEYYCSSFATSISWVFGGGTRLTVL
EC50 [1]: 0.018 µg/mL | hIL11 - average signal [2]: 0.464 | mIL11 - average signal [3]: 0.528 | MMP2 production, Experiment 1 (human atrial fibroblasts + TGFB1) [4]: 52.8 ng/mL | MMP2 production, Experiment 2 (human atrial fibroblasts + TGFB1) [4]: 39.9 ng/mL

B8: YU100-F02 (antibody)
chain: EVQLVESGGGVVQPGRSLRLSCAASGFTFSSYGMHWVRQAPGKGLEWVAVISYDGSNKYYADSVKGRFTISRDNSKNTLYLQMNSLRAEDTAVYYCAKIGATDPLDYWGQGTLVTVSSGSASAPKLEEGEFSEARVQSALTQPRSVSGSPGQSVTISCTGTSSDVGGYNYVSWYQQHPGKAPKLMIYDVTKRPSGVPDRFSGSKSGNTASLTISGLQADDEADYYCCSYAGSYTWIFGGGTKLTVL
EC50 [1]: 0.018 µg/mL | hIL11 - average signal [2]: 0.361 | mIL11 - average signal [3]: 0.303 | MMP2 production, Experiment 1 (human atrial fibroblasts + TGFB1) [4]: 51.2 ng/mL | MMP2 production, Experiment 2 (human atrial fibroblasts + TGFB1) [4]: 43.5 ng/mL

B9: YU100-H06 (antibody)
chain: B8 chain with E1Q, V136I, D219E, C227S, I236V
EC50 [1]: 0.013 µg/mL | hIL11 - average signal [2]: 0.181 | mIL11 - average signal [3]: 0.328 | MMP2 production, Experiment 1 (human atrial fibroblasts + TGFB1) [4]: 52.3 ng/mL | MMP2 production, Experiment 2 (human atrial fibroblasts + TGFB1) [4]: 43.9 ng/mL

B10: YU100-G09 (antibody)
chain: B8 chain with S162I, D219E, D223G, C227S, I236V
EC50 [1]: 0.014 µg/mL | hIL11 - average signal [2]: 0.802 | mIL11 - average signal [3]: 0.985 | MMP2 production, Experiment 1 (human atrial fibroblasts + TGFB1) [4]: 59.9 ng/mL | MMP2 production, Experiment 2 (human atrial fibroblasts + TGFB1) [4]: 47.5 ng/mL

B11: YU100-G01 (antibody)
chain: B8 chain with E1Q, E6Q, G148A, G167A, I186L, T190N, G215R, D219E, I236V
EC50 [1]: 0.019 µg/mL | hIL11 - average signal [2]: 0.205 | mIL11 - average signal [3]: 0.31 | MMP2 production, Experiment 1 (human atrial fibroblasts + TGFB1) [4]: 56.6 ng/mL | MMP2 production, Experiment 2 (human atrial fibroblasts + TGFB1) [4]: 49.7 ng/mL

B12: YU100-E12 (antibody)
chain: QVQLVESGGGVVQPGRSLRLSCAASGFTFSSYGMHWVRQAPGKGLEWVAVISYDGSNKYYADSVKGRFTISRDNSKNTLYLQMNSLRAEDTAVYYCAKIGATDPLDYWGQGTLVTVSSGSASAPKLEEGEFSEARVQSALTQPASVSGSPGQSITISCTGTSSDVGGYNYVSWYQQHPGTAPKLMIYDVSNRPSGVSNRFSGSKSGNTASLTISGLQAEDEADYYCSSYTSSTTWVFGGGTKLTVL
EC50 [1]: 0.016 µg/mL | hIL11 - average signal [2]: 0.426 | mIL11 - average signal [3]: 0.5 | MMP2 production, Experiment 1 (human atrial fibroblasts + TGFB1) [4]: 56 ng/mL | MMP2 production, Experiment 2 (human atrial fibroblasts + TGFB1) [4]: 47.9 ng/mL

B13: YU100-G07 (antibody)
chain: B12 chain with G167A, N169D, T180K, S190T, S227A, S231R, T233S, T234V
EC50 [1]: 0.018 µg/mL | hIL11 - average signal [2]: 0.203 | mIL11 - average signal [3]: 0.206 | MMP2 production, Experiment 1 (human atrial fibroblasts + TGFB1) [4]: 59 ng/mL | MMP2 production, Experiment 2 (human atrial fibroblasts + TGFB1) [4]: 49.7 ng/mL

B14: YU100-H11 (antibody)
chain: B12 chain with E6Q, T180K, S227C, T230A, S231G, T233Y
EC50 [1]: 0.015 µg/mL | hIL11 - average signal [2]: 0.724 | mIL11 - average signal [3]: 0.629 | MMP2 production, Experiment 1 (human atrial fibroblasts + TGFB1) [4]: 53.7 ng/mL | MMP2 production, Experiment 2 (human atrial fibroblasts + TGFB1) [4]: 45.5 ng/mL
